Read-outs that look alike come from different tables or passages of the source.
T1: corticotropin-releasing hormone (CRH) peptide (human and mouse (same sequence), not fully specified)
T1 peptide: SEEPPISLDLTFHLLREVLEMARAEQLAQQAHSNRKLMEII

T2: CRH (CT-Biotin) (human and mouse (same sequence), biotin on an added C-terminal K (CRH-K-Biotin))
T2 construct: also called Peptide 4 (CRH-Biotin)
T2 peptide: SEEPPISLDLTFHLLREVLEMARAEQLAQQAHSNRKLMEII

T3: CRH (NT-Biotin) (human and mouse (same sequence), not fully specified; biotin at the N-terminus)
T3 peptide: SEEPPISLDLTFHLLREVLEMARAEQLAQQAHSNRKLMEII

T4: CRH (CT-Biotin) (human and mouse, biotin on the added C-terminal K (-K-Biotin))
T4 construct: also called Peptide 4 (CRH-Biotin); C-terminally biotinylated corticotropin-releasing hormone
T4 peptide: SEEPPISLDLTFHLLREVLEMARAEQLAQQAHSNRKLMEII

T5: corticotropin-releasing hormone (CRH) peptide (human and mouse, not fully specified)
T5 peptide: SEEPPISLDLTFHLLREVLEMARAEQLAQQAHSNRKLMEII

T6: CRH (NT-Biotin) (human and mouse, not fully specified; biotin at the N-terminus)
T6 construct: also called Biotin-CRH; N-terminally biotinylated corticotropin-releasing hormone
T6 peptide: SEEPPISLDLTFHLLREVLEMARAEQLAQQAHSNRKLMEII


Experiments:
[1] = target: T1, corticotropin-releasing hormone (CRH) …; test: cell-based or functional assay
[2] = target: T2, CRH (CT-Biotin); test: ELISA, biotinylated CRH on streptavidin plate
Method: (§1) Streptavidin (Thermo, Cat: 21125) was diluted in PBS to a concentration of 2 μg/ml. 100 μl of diluted streptavidin was added per well to ELISA microplates, and the plates were incubated overnight at 4° C. […] 100 μL of 3,3′,5,5′-tetramethylbenzidine (TMB) substrate (Biopanda, Cat: TMB-S-003) was added, and the plates were incubated at room temperature for 15 minutes. 100 μL of ELISA stopping solution (Solarbio, Cat #: C1058) was added to terminate the reaction, and the optical density at 450 nm (OD450 nm) was determined by an ELISA plate reader (Molecular Devices, Spectra max 384 plus).

[3] = target: T2, CRH (CT-Biotin); test: ELISA, biotinylated CRH on streptavidin plate
Method: as §1

[4] = target: T3, CRH (NT-Biotin); test: ELISA, biotinylated CRH on streptavidin plate
Method: as §1

[5] = target: T1, corticotropin-releasing hormone (CRH) …; test: cell-based or functional assay
[6] = target: T4, CRH (CT-Biotin); test: ELISA, C-terminally biotinylated CRH on streptavidin-coated plate
Method: as §1

[7] = target: T5, corticotropin-releasing hormone (CRH) …; test: cell-based or functional assay
[8] = target: T6, CRH (NT-Biotin); test: ELISA, N-terminally biotinylated CRH on streptavidin-coated plate
Method: as §1

Binder | hCRHR1 Luciferase Reporter Assay IC50 [1] | mCrhr1 Luciferase Reporter Assay IC50 [1] | EC50 [2] | EC50 [3] | EC50 [4] | hCRHR1 Luciferase Reporter Assay IC50 [5] | mCrhr1 Luciferase Reporter Assay IC50 [5] | EC50 [6] | hCRHR1 Reporter IC50 [7] | EC50 [8]
PR005657 (antibody, human IgG1, kappa, V domains shown, PTM-removal variant of PR004290) VH: EVQLVESGGVLVQPGGSLRLSCAASGFTFSSYWMTWVRQAPGKGLEWVANIKQDASEKYYVDSVKGRFTISRDNAKNSLFLQMNSLRAEDTAVYYCARTLIFDYWGQGTLVTVSS VL: DIVMTQSPLSLPVTPGEPASISCRSSQSLLHSTGYNSLEWYLQKPGQSPQLLIYLGSNRASGVPDRFSGSGSGTDFTLKISRVEAEDVGIYYCMQTLQTPITFGQGTRLEIKR | 4.6 nM | 11.8 nM | 0.045 nM | – | – | – | – | – | – | –
PR301777 (antibody, human IgG1, kappa, V domains shown, Series 5; mouse variable domains, human IgG1 wildtype Fc) VH: EMKLEESGGGLVQPGGSMKLSCVASGFTFSNYWMNWVRQSPEKGLEWVAEIRLKSNNYATHYAESVKGRFTISRDDSKSGVYLQMNNLGAEDTGIYYCTVGTLVYWGQGTLVTVSA VL: DIVLTQSPASLAVSLGQRATISCRASQSVSTSTYNYMHWFQQKPGQPPKLLIKFASNLESGVPARFSGSGSGTDFTLNIHPVEEEDTATFYCQHSWEIPYTFGGGTKLEIKR | – | – | – | 0.043 nM | 0.043 nM | 0.674 nM | 2.42 nM | – | – | –
PR302036 (antibody, human IgG1, kappa, V domains shown, humanized variant of PR301777) VH: EMQLVESGGGLVQPGGSLRLSCAASGFTFSNYWMNWVRQAPGKGLEWVAEIRLKSNNYATHYAESVKGRFTISRDDSKSSVYLQMNSLKTEDTAVYYCTVGTLVYWGQGTLVTVSS VL: DIVLTQSPDSLAVSLGERATINCRASQSVSTSTYNYMHWFQQKPGQPPKLLIKFASNLESGVPDRFSGSGSGTDFTLTISSLQAEDTAVYYCQHSWEIPYTFGQGTKLEIKR | – | – | – | 0.033 nM | 0.04 nM | 1.4 nM | 3.03 nM | – | – | –
PR302029 (antibody, human IgG1, kappa, V domains shown, humanized variant of PR301777) VH: EVQLVESGGGLVQPGGSLRLSCAASGFTFSNYWMNWVRQAPGKGLEWVGEIRLKSNNYATHYAESVKGRFTISRDDSKNSLYLQMNSLKTEDTAVYYCTVGTLVYWGQGTLVTVSS VL: DIVLTQSPDSLAVSLGERATINCRASQSVSTSTYNYMHWFQQKPGQPPKLLIKFASNLESGVPDRFSGSGSGTDFTLTISSLQAEDTAVYYCQHSWEIPYTFGQGTKLEIKR | – | – | – | 0.027 nM | 0.03 nM | 2.65 nM | 13.9 nM | – | – | –
PR302043 (antibody, human IgG1, kappa, V domains shown, humanized variant of PR301777) VH: EVQLVESGGGLVQPGGSLKLSCAASGFTFSNYWMNWVRQASGKGLEWVGEIRLKSNNYATHYAESVKGRFTISRDDSKNTAYLQMNSLKTEDTAVYYCTRGTLVYWGQGTLVTVSS VL: DIVLTQSPDSLAVSLGERATINCRASQSVSTSTYNYMHWFQQKPGQPPKLLIKFASNLESGVPDRFSGSGSGTDFTLTISSLQAEDTAVYYCQHSWEIPYTFGQGTKLEIKR | – | – | – | 0.03 nM | 0.046 nM | 3.87 nM | 9.97 nM | – | – | –
PR302050 (antibody, human IgG1, kappa, V domains shown, humanized variant of PR301777) VH: EMQLVESGGGLVQPGGSLKLSCAASGFTFSNYWMNWVRQASGKGLEWVAEIRLKSNNYATHYAESVKGRFTISRDDSKSTVYLQMNSLKTEDTAVYYCTVGTLVYWGQGTLVTVSS VL: DIVLTQSPDSLAVSLGERATINCRASQSVSTSTYNYMHWFQQKPGQPPKLLIKFASNLESGVPDRFSGSGSGTDFTLTISSLQAEDTAVYYCQHSWEIPYTFGQGTKLEIKR | – | – | – | 0.01 nM | 0.021 nM | 0.572 nM | 2.7 nM | – | – | –
PR302038 (antibody, human IgG1, kappa, V domains shown, humanized variant of PR301777) VH: EMQLVESGGGLVQPGGSLRLSCAASGFTFSNYWMNWVRQAPGKGLEWVAEIRLKSNNYATHYAESVKGRFTISRDDSKSSVYLQMNSLKTEDTAVYYCTVGTLVYWGQGTLVTVSS VL: EIVLTQSPATLSLSPGERATLSCRASQSVSTSTYNYMHWFQQKPGQAPRLLIKFASNLESGIPARFSGSGSGTDFTLTISSLEPEDTAVYYCQHSWEIPYTFGQGTKLEIKR | – | – | – | 0.04 nM | 0.065 nM | 3.34 nM | 10.1 nM | – | – | –
PR302031 (antibody, human IgG1, kappa, V domains shown, humanized variant of PR301777) VH: EVQLVESGGGLVQPGGSLRLSCAASGFTFSNYWMNWVRQAPGKGLEWVGEIRLKSNNYATHYAESVKGRFTISRDDSKNSLYLQMNSLKTEDTAVYYCTVGTLVYWGQGTLVTVSS VL: EIVLTQSPATLSLSPGERATLSCRASQSVSTSTYNYMHWFQQKPGQAPRLLIKFASNLESGIPARFSGSGSGTDFTLTISSLEPEDTAVYYCQHSWEIPYTFGQGTKLEIKR | – | – | – | 0.028 nM | 0.037 nM | 14 nM | – | – | – | –
PR302045 (antibody, human IgG1, kappa, V domains shown, humanized variant of PR301777) VH: EVQLVESGGGLVQPGGSLKLSCAASGFTFSNYWMNWVRQASGKGLEWVGEIRLKSNNYATHYAESVKGRFTISRDDSKNTAYLQMNSLKTEDTAVYYCTRGTLVYWGQGTLVTVSS VL: EIVLTQSPATLSLSPGERATLSCRASQSVSTSTYNYMHWFQQKPGQAPRLLIKFASNLESGIPARFSGSGSGTDFTLTISSLEPEDTAVYYCQHSWEIPYTFGQGTKLEIKR | – | – | – | 0.046 nM | 0.128 nM | 15.3 nM | – | – | – | –
PR302052 (antibody, human IgG1, kappa, V domains shown, humanized variant of PR301777) VH: EMQLVESGGGLVQPGGSLKLSCAASGFTFSNYWMNWVRQASGKGLEWVAEIRLKSNNYATHYAESVKGRFTISRDDSKSTVYLQMNSLKTEDTAVYYCTVGTLVYWGQGTLVTVSS VL: EIVLTQSPATLSLSPGERATLSCRASQSVSTSTYNYMHWFQQKPGQAPRLLIKFASNLESGIPARFSGSGSGTDFTLTISSLEPEDTAVYYCQHSWEIPYTFGQGTKLEIKR | – | – | – | 0.018 nM | 0.048 nM | 2.05 nM | 7.32 nM | – | – | –
PR302066 (antibody, human IgG1, kappa, V domains shown, humanized variant of PR301777) VH: EMQLVESGGGLVKPGGSLRLSCAASGFTFSNYWMNWVRQAPGKGLEWVAEIRLKSNNYATHYAESVKGRFTISRDDSKSTVYLQMNSLKTEDTAVYYCTVGTLVYWGQGTLVTVSS VL: EIVLTQSPATLSLSPGERATLSCRASQSVSTSTYNYMHWFQQKPGQAPRLLIKFASNLESGIPARFSGSGSGTDFTLTISSLEPEDTAVYYCQHSWEIPYTFGQGTKLEIKR | – | – | – | 0.019 nM | 0.077 nM | 2.49 nM | 11.5 nM | – | – | –
PR302041 (antibody, human IgG1, kappa, V domains shown, humanized variant of PR301777) VH: EMQLVESGGGLVQPGGSLRLSCAASGFTFSNYWMNWVRQAPGKGLEWVAEIRLKSNNYATHYAESVKGRFTISRDDSKSSVYLQMNSLKTEDTAVYYCTVGTLVYWGQGTLVTVSS VL: DIQLTQSPSSLSASVGDRVTITCRASQSVSTSTYNYMHWFQQKPGKAPKLLIKFASNLESGVPSRFSGSGSGTDFTLTISSLQPEDTATYYCQHSWEIPYTFGQGTKLEIKR | – | – | – | 0.035 nM | 0.063 nM | 2.54 nM | 7.17 nM | – | – | –
PR302034 (antibody, human IgG1, kappa, V domains shown, humanized variant of PR301777) VH: EVQLVESGGGLVQPGGSLRLSCAASGFTFSNYWMNWVRQAPGKGLEWVGEIRLKSNNYATHYAESVKGRFTISRDDSKNSLYLQMNSLKTEDTAVYYCTVGTLVYWGQGTLVTVSS VL: DIQLTQSPSSLSASVGDRVTITCRASQSVSTSTYNYMHWFQQKPGKAPKLLIKFASNLESGVPSRFSGSGSGTDFTLTISSLQPEDTATYYCQHSWEIPYTFGQGTKLEIKR | – | – | – | 0.022 nM | 0.026 nM | 6.87 nM | 204 nM | – | – | –
PR302048 (antibody, human IgG1, kappa, V domains shown, humanized variant of PR301777) VH: EVQLVESGGGLVQPGGSLKLSCAASGFTFSNYWMNWVRQASGKGLEWVGEIRLKSNNYATHYAESVKGRFTISRDDSKNTAYLQMNSLKTEDTAVYYCTRGTLVYWGQGTLVTVSS VL: DIQLTQSPSSLSASVGDRVTITCRASQSVSTSTYNYMHWFQQKPGKAPKLLIKFASNLESGVPSRFSGSGSGTDFTLTISSLQPEDTATYYCQHSWEIPYTFGQGTKLEIKR | – | – | – | 0.024 nM | 0.043 nM | 6.66 nM | 33.3 nM | – | – | –
PR302055 (antibody, human IgG1, kappa, V domains shown, humanized variant of PR301777) VH: EMQLVESGGGLVQPGGSLKLSCAASGFTFSNYWMNWVRQASGKGLEWVAEIRLKSNNYATHYAESVKGRFTISRDDSKSTVYLQMNSLKTEDTAVYYCTVGTLVYWGQGTLVTVSS VL: DIQLTQSPSSLSASVGDRVTITCRASQSVSTSTYNYMHWFQQKPGKAPKLLIKFASNLESGVPSRFSGSGSGTDFTLTISSLQPEDTATYYCQHSWEIPYTFGQGTKLEIKR | – | – | – | 0.013 nM | – | 1.35 nM | 4.67 nM | – | – | –
PR302341 (antibody, human IgG1, kappa, V domains shown, Mouse variable domains, expressed recombinantly with human IgG1 wildtype Fc; also called Series 10 mAb) VH: EVQLQQSGPELVKPGASVKMSCKASGYTFTDYFMKWVKQSHGESLEWIGVINPNNGDIFYNQKFKGKATLTVDKSSSTAFMQLNSLTSEDSAVYSCARGTDRALFAYWGQGTLVAVSA VL: DVLMTQTPLSLPVSLGDQASISCRSGQSIVHSDGNTYLEWYLQRPGQSPRLLIYKVSNRFSGVPDRFSGSGSGTDFTLKISRVGAEDLGIYYCFQGSHIPWTFGGGTKLEVKR | – | – | – | – | – | – | – | 0.017 nM | 0.503 nM | 0.023 nM

Reference: patent US20260042834A1 (HBM ALPHA THERAPEUTICS, published 2026)
